Experimental data published in patent US6649396.

Biological target: native fiber receptors
Test: cell-based or functional assay

recombinant Ad5 knob (from UniProt P11818 386-581)
decrease in expression of luciferase after AdCMVLuc infection of mock-transfected HeLa cells and HeLa cells expressing the irrelevant sFv: > 95%

recombinant Ad2 knob (from UniProt P03275 388-582)
decrease in expression of luciferase after AdCMVLuc infection of mock-transfected HeLa cells and HeLa cells expressing the irrelevant sFv: > 95%
